Source: the supplement of paper PMC10724198
± gives the standard deviation of the averaged measurements.

Test system: Saccharomyces cerevisiae
Assay: protein stability index of tFT-peptide fusion (C-terminal peptide) (PSI (0-1 scale)); higher = more stable (slower turnover)
Details: genetic background: wild type; temperature: 30 C
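Also: PSI is a weighted mean of sequencing reads over stability bins, variants kept only with over 10 reads, mCherry proximal and sfGFP distal, peptide attached via GGGS linker.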

Sequence	protein stability index
SPPPRATLPRPP	0.689 ± 0.085
SPPPRPLKLFPP	0.599 ± 0.025
SPPPSPSPPPPL	0.739 ± 0.049
SPPPSVCPRFPI	0.761 ± 0.057
SPPRPPSLPPPG	0.67 ± 0.071
SPPRSRPPPSLQ	0.679 ± 0.015
SPPSLLATVYFF	0.7065 ± 0.0015
SPPSPPPPPPPS	0.691 ± 0.061
SPQKCKSAPSSC	0.6746 ± 0.0031
SPRGPLVICHHP	0.745 ± 0.075
SPRHNALHFTLV	0.644 ± 0.032
SPRLLHPLPSFL	0.7114 ± 0.0066
SPRLPPPLFLPL	0.638 ± 0.02
SPRLQAFPGSRA	0.713 ± 0.032
SPRQARSFLTSS	0.756 ± 0.026
SPSGLPPPLTYP	0.667 ± 0.034
SPSLLLSFLSFF	0.665 ± 0.071
SPSLVVRVSFEF	0.595 ± 0.025
SPSPFRPAPSLH	0.7048 ± 0.0061
SPSPPPTPGSPP	0.718 ± 0.15
SPTLPLTRRHPR	0.718 ± 0.035
SPTNNTSTQSQT	0.686 ± 0.012
SPTPRLGGPPPI	0.723 ± 0.015
SPVFSDFLLSLC	0.642 ± 0.028
SPVFYYCPGYVD	0.702 ± 0.05
SPVSLLSFRLLL	0.573 ± 0.022

Sequence	protein stability index
SPVTDRRKRRNN	0.666 ± 0.012
SPYLGTYAPVIK	0.6804 ± 0.0032
SPYLRISGLVFC	0.557 ± 0.045
SQKNTQLEADGK	0.661 ± 0.0093
SQLGDGLLGEGV	0.697 ± 0.044
SQPIRAMILRVP	0.53 ± 0.00096
SQQFGSILPGEL	0.694 ± 0.018
SQRRGLLGRFRI	0.695 ± 0.011
SQTPPPAPSGHH	0.69 ± 0.099
SRALSPRAPFGN	0.76 ± 0.15
SRASATTLRLAT	0.66 ± 0.015
SRASATYLFNLH	0.622 ± 0.012
SRAVTDRGWSPR	0.68 ± 0.028
SRAYDKSRNISI	0.731 ± 0.062
SRCIIGILTRNF	0.6836 ± 0.0035
SRCPLLNGIGFR	0.6471 ± 0.0025
SRCYKETGKVRE	0.736 ± 0.0071
SRDSGLIDPRFS	0.66973 ± 0.00044
SRFIDLLFPSSP	0.705 ± 0.0074
SRFILSRLPLLS	0.595 ± 0.065
SRFRKSSGLLLK	0.758 ± 0.09
SRFSPSLPPFLP	0.661 ± 0.055
SRGNIPVCEGWS	0.742 ± 0.028
SRGQSSNEVSPL	0.637 ± 0.017
SRGTKAERISIG	0.654 ± 0.013
SRGWLHVVGGQV	0.6843 ± 0.004

Sequence	protein stability index
SRKASWECVRGG	0.699 ± 0.015
SRLGVIRGIGLV	0.67 ± 0.025
SRLPRGTYRGCP	0.711 ± 0.076
SRLYGHDLRCRL	0.777 ± 0.091
SRNVGRWSLRVV	0.632 ± 0.024
SRPLFLSLFSSV	0.599 ± 0.14
SRPPPFFPPASP	0.682 ± 0.01
SRRLSLSSLAFP	0.723 ± 0.0074
SRRRRGRGEWFG	0.722 ± 0.019
SRSPRSRSRHES	0.69769 ± 0.00032
SRTNVKVRKTGV	0.6916 ± 0.0059
SRVARWRSPGCC	0.6474 ± 0.0012
SRVGWSRLGPGL	0.68 ± 0.022
SRYVSGGRKRKV	0.636 ± 0.045
SSCFVIRSLSNP	0.72 ± 0.14
SSCVSDKLLKNG	0.695 ± 0.011
SSDNKGLFDTRI	0.728 ± 0.024
SSFFAFYSRRRF	0.714 ± 0.052
SSFLAPFRFPLL	0.675 ± 0.093
SSFLFVPHHYPS	0.706 ± 0.044
SSFRRFVLVGFE	0.607 ± 0.011
SSGALLLLTGFM	0.681 ± 0.013
SSGISEGFERGG	0.581 ± 0.014
SSGLALGCPLGA	0.682 ± 0.062
SSGRHCLPCANV	0.64 ± 0.017
SSLERVHVCPLE	0.64 ± 0.079

Sequence	protein stability index
SSLLFVMSYGLL	0.661 ± 0.027
SSLPDSPLNRER	0.693 ± 0.038
SSLPLPRVPPPP	0.717 ± 0.032
SSLSLDERKPRT	0.712 ± 0.23
SSLVAFPPLPAP	0.731 ± 0.024
SSLWGAGGRGID	0.706 ± 0.011
SSMCPDGGYQWV	0.686 ± 0.0074
SSPPPSAHPLPS	0.6933 ± 0.0055
SSPPSARSPPPP	0.717 ± 0.076
SSPPSPPPLTLY	0.687 ± 0.02
SSPRQITTLTRL	0.757 ± 0.037
SSPTRARLFFPH	0.659 ± 0.039
SSPVDPLRPPAP	0.704 ± 0.013
SSRRQSSRPPHS	0.648 ± 0.025
SSRTPPRFYSLP	0.708 ± 0.0074
SSSDPYLLFCHS	0.741 ± 0.37
SSSLPPSHFYPP	0.718 ± 0.064
SSSRCRVGHAGW	0.67 ± 0.0096
SSSTPGRATRVS	0.652 ± 0.034
SSSVFFFLRRFR	0.698 ± 0.025
SSSVPHFIFLPR	0.656 ± 0.028
SSTGRGRGCQEM	0.684 ± 0.0086
SSVFPSSPAFLP	0.691 ± 0.0099
